This is an account of results in US20180273614A1 (GALAPAGOS, published 2018).

For one test, the target named is T1, murine IL-17C (mouse, UniProt Q8K4C5 17-194, limits assumed).
T1 construct: Endogenous IL-17C in paraffin sections of ear skin of BALB/c mice (IHC); also called IL-17C (mouse skin)
T1 sequence (looked up): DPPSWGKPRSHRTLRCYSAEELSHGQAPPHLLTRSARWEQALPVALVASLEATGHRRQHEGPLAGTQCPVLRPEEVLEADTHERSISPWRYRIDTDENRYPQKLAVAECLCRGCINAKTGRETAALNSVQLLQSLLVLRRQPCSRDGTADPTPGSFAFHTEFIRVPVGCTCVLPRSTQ
Nature of the test: IHC on paraffin sections of mouse ear skin (MC903 model), biotinylated antibody. The procedure: (§1) 4 μm-thick slices from paraffin-embedded skin biopsies from healthy subjects and subjects with atopic dermatitis were analyzed by IHC. Staining for IL-17C expression was performed with biotinylated MOR22420 (and MOR03207 isotype control antibody). In brief, sections were deparaffinised, rehydrated and unmasked by heat epitope antigen retrieval. Endogenous peroxidase was blocked in BLOXALL™ Blocking Solution (Vector Laboratories) and non-specific binding was blocked with 2.5% Horse Serum Blocking Solution (Vector Laboratories). The primary antibodies were incubated for one hour at room temperature. Binding of MOR22420 biotinylated antibody and MOR03207 biotinylated antibody was detected by incubation with Avidin Biotin Peroxidase Complex (Vector Laboratories). The signal was developed using the peroxidase substrate diaminobenzidine tetrahydrochloride (Sigma). Mayer's hematoxylin (BDH) was used for counterstaining before dehydration and mounting of slides.
At sacrifice, samples form ear skin were collected and fixed in 4% formaldehyde before embedding in paraffin. […] Five fields per ear (high power field ×20) covering the whole ear from top to bottom were measured, and the 5 values were averaged per ear and per mice (left/right ear). […]

A further test addresses T2, human IL-17C (human, UniProt Q9P0M4 19-197).
T2 construct: Endogenous IL-17C in paraffin sections of human skin biopsies (IHC); The background calls IL-17C a secreted homodimer; also called interleukin 17C
T2 sequence: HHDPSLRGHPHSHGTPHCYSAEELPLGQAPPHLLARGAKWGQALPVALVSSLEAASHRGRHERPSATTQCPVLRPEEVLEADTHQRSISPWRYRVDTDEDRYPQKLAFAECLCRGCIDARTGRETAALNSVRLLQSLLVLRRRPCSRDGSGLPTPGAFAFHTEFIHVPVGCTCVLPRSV
The experiment in a line: IHC on paraffin sections of human skin (healthy and atopic dermatitis), biotinylated antibody, avidin-biotin-peroxidase detection. On the procedure: as §1

B1: MOR12743 (antibody, V domains shown)
VH: QVQLVQSGAEVKKPGASVKVSCKASGYTFTSNFIHWVRQAPGQGLEWMGWISPYNGDTNYAQKFQGRVTMTRDTSISTAYMELSRLRSEDTAVYYCARESVYYGSDYGYNGMDIWGQGTLVTVSS
VL: DIELTQPPSVSVSPGQTASITCSGDNLGEEYVSWYQQKPGQAPVLVIYDDTKRPSGIPERFSGSNSGNTATLTISGTQAEDEADYYCASWDLWSVEVFGGGTKLTVLG
notes: Said to be disclosed and characterized in WO 2013/057241; also called anti-IL-17C biotinylated MOR12743 antibody; anti-IL-17C MORI 2743 antibody
For the molecule B1, the binding result in the test with murine IL-17C is recorded as “binds”.

B2: MOR22420 (antibody, V domains shown)
VH: QVQLVQSGAEVKKPGSSVKVSCKASGGTFSSYAISWVRQAPGQGLEWMGTIDPFFGKTYYAQKFQGRVTITADESTSTAYMELSSLRSEDTAVYYCARDVSSISYYFHEYYSDRFDYWGQGTLVTVSS
VL: DIALTQPASVSGSPGQSITISCTGTSSDVGGYEYVNWYQQHPGKAPKLMIYDDSYRPSGVSNRFSGSKSGNTASLTISGLQAEDEADYYCQSTDPHSTVVFGGGTKLTVLG
notes: also called biotinylated MOR22420; MOR22420 antibody
For B2, in the test with human IL-17C, the binding result is “binds”.
